Laboratory results published in patent US20050048070A1.

How the values were obtained:
[1] = target: lysate of the colon cancer cell line colon 137 (COU-1 antigen positive); assay: ELISA on coated colon 137 lysate
[2] = target: K8(1-124)/K18(1-124) heterotypic complex (human) (UniProt P05787); assay: SPR (BIAcore), complex immobilized, COU-1 injected
[3] = target: K8(1-124)/intact K18 heterotypic complex (human) (UniProt P05787); assay: SPR (BIAcore), complex immobilized, COU-1 injected

Row | concentration needed for saturation [1] [µg/mL] | Ka [2] [M⁻¹] | Kd [2] [nM] | koff [2] [s⁻¹] | kon [2] [M⁻¹ s⁻¹] | Ka [3] [M⁻¹] | Kd [3] [nM] | koff [3] [s⁻¹] | kon [3] [M⁻¹ s⁻¹] | Binder
1 | 1 | 9.5e+08 | 1.05 | 0.0003 | 280000 | 1.4e+09 | 0.71 | 0.00012 | 170000 | human monoclonal IgM antibody COU-1 (antibody, V domains shown) VH: GAEVKKPGASVKVSCKASDYTFSSYYMHWVRQAPGQGLEWMGIINPSGGSTSYAQKFQGRVTMTRDTSTNTVYMELSSLRSEDTAVYYCARDQVVVAATLSNYGMDVWGQGTTVTVSS VL: ELTQSPGTLSLSPGERATLSCRASQSVSSSYLAWYQQKPGQAPRLLIYDASNRATGIPARFSGSGSGTDFTLTISSLEPEDFAVYYCQQGTNWGIAFGQGTRLDIKR
2 | 20 |  |  |  |  |  |  |  |  | recombinant B9165 Fab (Fab, V domains shown) VH: GAEVKKPGASVKVSCKASDYTFSSYYMHWVRQAPGQGLEWMGIINPSGGSTSYAQKFQGRVTMTRDTSTNTVYMELSSLRSEDTAVYYCARDQVVVAATLSNYGMDVWGQGTTVTVSS VL: ELTQSPGTLSLSPGERATLSCRASQSVSSSYLAWYQQKPGQAPRLLIYDASNRATGIPARFSGSGSGTDFTLTISSLEPEDFAVYYCQQGTNWGIAFGQGTRLDIKR
